Consider 56 variants from paper PMC11969024 (2025).

The labels stand for the following.
B1: peptide HD2 (from tick evasin EVA4) / CCL19 (biotinylated, synthetic) (parent complex)
chain 1: EEDDYTAYAPLTCYFT
chain 2: GTNDAEDCCLSVTQKPIPGYIVRNFHYLLIKDGCRVPAVVFTTLRGRQLCAPPDQPWVERIIQRLQRTSAKMKRRSS

Variants of B1 are the subject of this assay.
For chain 1 FEDDYTAYAPLTCYFT [chain 1 E1F], the enrichment is -0.113 log2 (difference from the parental peptide).

For the variant chain 1 DEDDYTAYAPLTCYFT [chain 1 E1D], the enrichment was 0.567 log2 (difference from the parental peptide).

As to chain 1 LEDDYTAYAPLTCYFT [chain 1 E1L], the enrichment was -2.92 log2 (difference from the parental peptide).

For the variant chain 1 KEDDYTAYAPLTCYFT [chain 1 E1K], the enrichment is -4.04 log2 (difference from the parental peptide).

Take chain 1 REDDYTAYAPLTCYFT [chain 1 E1R]: the enrichment is -6.95 log2 (difference from the parental peptide).

With chain 1 AEDDYTAYAPLTCYFT [chain 1 E1A], the enrichment was -5.3 log2 (difference from the parental peptide).

For the variant chain 1 SEDDYTAYAPLTCYFT [chain 1 E1S], the enrichment was -6.42 log2 (difference from the parental peptide).

As for chain 1 PEDDYTAYAPLTCYFT [chain 1 E1P], the enrichment was -6.51 log2 (difference from the parental peptide).

Regarding chain 1 EEDDYTAYAPWTCYFT [chain 1 L11W], the enrichment is -0.0314 log2 (difference from the parental peptide).

For chain 1 EEDDYTAYAPKTCYFT [chain 1 L11K], the enrichment is -3.64 log2 (difference from the parental peptide).

With chain 1 EEDDYTAYAPPTCYFT [chain 1 L11P], the enrichment is -5.49 log2 (difference from the parental peptide).

In the case of chain 1 EEDDYTAYAPTTCYFT [chain 1 L11T], the enrichment is -3.41 log2 (difference from the parental peptide).

In the case of chain 1 EEDDYTAYAPITCYFT [chain 1 L11I], the enrichment is 1.76 log2 (difference from the parental peptide).

For chain 1 EEDDYTAYAPRTCYFT [chain 1 L11R], the enrichment is -3.8 log2 (difference from the parental peptide).

Consider chain 1 EEDDYTAYAPMTCYFT [chain 1 L11M], for which the enrichment is -1.53 log2 (difference from the parental peptide).

With chain 1 EEDDYTAYAPLCCYFT [chain 1 T12C], the enrichment is -7.61 log2 (difference from the parental peptide).

With chain 1 EEDDYTAYAPLHCYFT [chain 1 T12H], the enrichment was 0.389 log2 (difference from the parental peptide).

Take chain 1 EEDDYTAYAPLLCYFT [chain 1 T12L]: the enrichment was 2.69 log2 (difference from the parental peptide).

With chain 1 EEDDYTAYAPLMCYFT [chain 1 T12M], the enrichment is 1.53 log2 (difference from the parental peptide).

On to chain 1 EEDDYTAYAGLTCYFT [chain 1 P10G], for which the enrichment is -5.73 log2 (difference from the parental peptide).

Consider chain 1 EEDDYTAYALLTCYFT [chain 1 P10L], for which the enrichment is -6.31 log2 (difference from the parental peptide).

For chain 1 EEDDYTAYAVLTCYFT [chain 1 P10V], the enrichment is -9.35 log2 (difference from the parental peptide).

On to chain 1 EEDDYTAYATLTCYFT [chain 1 P10T], for which the enrichment was -5.84 log2 (difference from the parental peptide).

Take chain 1 EEDDYTAYAPLTCYFS [chain 1 T16S]: the enrichment was -1.7 log2 (difference from the parental peptide).

Regarding chain 1 EEDDYTAYAPLTCYFR [chain 1 T16R], the enrichment is -6.57 log2 (difference from the parental peptide).

chain 1 EEDDYTAYAPLTCYFQ [chain 1 T16Q]: the enrichment was -5.8 log2 (difference from the parental peptide).

Take chain 1 EEDDYTAYAPLTCYFM [chain 1 T16M]: the enrichment is 0.0438 log2 (difference from the parental peptide).

For the variant chain 1 EEDDYTAYAPLTCYFA [chain 1 T16A], the enrichment was -1.59 log2 (difference from the parental peptide).

On to chain 1 EEDDYTAYAPLTCYFC [chain 1 T16C], for which the enrichment was -6.65 log2 (difference from the parental peptide).

Turning to chain 1 EEDDYTAYAPLTCYFD [chain 1 T16D], the enrichment was -1.5 log2 (difference from the parental peptide).

As for chain 1 EEDDYTAYAPLTCYFG [chain 1 T16G], the enrichment was -4.08 log2 (difference from the parental peptide).

With chain 1 EEDDYTAYAPLTCYFW [chain 1 T16W], the enrichment is 0.831 log2 (difference from the parental peptide).

As for chain 1 EEDDYTAYAPLTCYFF [chain 1 T16F], the enrichment is -0.403 log2 (difference from the parental peptide).

In the case of chain 1 EEDDYSAYAPLTCYFT [chain 1 T6S], the enrichment was 0.379 log2 (difference from the parental peptide).

For chain 1 EEDDYMAYAPLTCYFT [chain 1 T6M], the enrichment is 1.73 log2 (difference from the parental peptide).

Consider chain 1 EEDDYRAYAPLTCYFT [chain 1 T6R], for which the enrichment was -3.39 log2 (difference from the parental peptide).

Take chain 1 EEDDYGAYAPLTCYFT [chain 1 T6G]: the enrichment was 1.65 log2 (difference from the parental peptide).

Turning to chain 1 EEDDYYAYAPLTCYFT [chain 1 T6Y], the enrichment is 4.88 log2 (difference from the parental peptide).

Turning to chain 1 EEDDYWAYAPLTCYFT [chain 1 T6W], the enrichment was 7.55 log2 (difference from the parental peptide).

Turning to chain 1 EEDDYCAYAPLTCYFT [chain 1 T6C], the enrichment was -7.51 log2 (difference from the parental peptide).

As to chain 1 EEDDYTAYAPLTCPFT [chain 1 Y14P], the enrichment is -7.82 log2 (difference from the parental peptide).

chain 1 EEDDYTAYAPLTCKFT [chain 1 Y14K]: the enrichment is -5.55 log2 (difference from the parental peptide).

With chain 1 EEDDYTAYAPLTCFFT [chain 1 Y14F], the enrichment was -2.54 log2 (difference from the parental peptide).

As to chain 1 EEDDYTAYAPLTCRFT [chain 1 Y14R], the enrichment was -7.07 log2 (difference from the parental peptide).

For chain 1 EEDDYTAYAPLTCGFT [chain 1 Y14G], the enrichment is -9.47 log2 (difference from the parental peptide).

Turning to chain 1 EEDDYTAYAPLTCLFT [chain 1 Y14L], the enrichment is -9.46 log2 (difference from the parental peptide).

chain 1 EEDDYTAYSPLTCYFT [chain 1 A9S]: the enrichment was -6.72 log2 (difference from the parental peptide).

For the variant chain 1 EEDDYTAYNPLTCYFT [chain 1 A9N], the enrichment is -3.82 log2 (difference from the parental peptide).

With chain 1 EEDDYTAYIPLTCYFT [chain 1 A9I], the enrichment was -3.88 log2 (difference from the parental peptide).

As for chain 1 EEDDYTAYCPLTCYFT [chain 1 A9C], the enrichment is -8.06 log2 (difference from the parental peptide).

For chain 1 EEDDYTAYMPLTCYFT [chain 1 A9M], the enrichment was -0.965 log2 (difference from the parental peptide).

Turning to chain 1 EEDDYTAYLPLTCYFT [chain 1 A9L], the enrichment was -1.81 log2 (difference from the parental peptide).

Take chain 1 EEDDYTAYRPLTCYFT [chain 1 A9R]: the enrichment was -5.91 log2 (difference from the parental peptide).

With chain 1 EEDDYTAYFPLTCYFT [chain 1 A9F], the enrichment is -2.77 log2 (difference from the parental peptide).

Regarding chain 1 EEDDYTAYTPLTCYFT [chain 1 A9T], the enrichment was -6.55 log2 (difference from the parental peptide).

In the case of chain 1 EEDDYTAYYPLTCYFT [chain 1 A9Y], the enrichment was 0.673 log2 (difference from the parental peptide).
